Results from patent publication US20240352438A1, “MEANS AND METHODS FOR DETOXIFYING OCHRATOXIN A” (DSM Austria GmbH, priority 2021, published 2024).

Experiments:
[1] = OTA detoxification activity assay (specific activity, fluorescence reduction ex/em 390/450 nm); type: biochemical; conditions: SEQ ID NO: 1 = 100%
Procedure, shortened: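 Recombinant enzyme preparation with 200 ng/mL OTA in 100 mM sodium phosphate, at pH 6.0 and pH 7.5, 37° C. Degradation followed as the fall in fluorescence at ex/em 390/450 nm. Specific activity taken from the initial linear slope; one unit degrades 1 μmol OTA per min at a starting OTA of […].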

[2] = Enzymatic activity comparison: activity remaining after 65° C. for 10 min at pH 6.0, relative to SEQ ID NO: 1; type: physicochemical
Experimental: To compare the temperature behavior and thermostability of selected enzymes to one another, enzyme was incubated at 65° C. for 10 min at pH 6.0. The enzymatic activity remaining after incubation was compared to the remaining activity of the enzyme of SEQ ID NO: 1 after incubation, the latter being set to 100%, see Table 16.

Row | Molecule | Specific OTA detoxification activities in % compared to the enzyme of SEQ ID NO: 1, pH 6.0 [1] [%] | Specific OTA detoxification activities in % compared to the enzyme of SEQ ID NO: 1, pH 7.5 [1] [%] | Enzymatic activity remaining after incubation, compared to SEQ ID NO: 1 (set to 100%) [2] [%]
1 | 144 (protein, exemplary polypeptide) MTTRTRILTAFLSLLAANACAADAAPAAPHTVVLRAARMFDGASGKLVDHPQLTIVGNKIVRIAQGDKAEVPAGAEVVDLGDATLLPGFIDAHVHLSGQSSDNWYGDFFDNMMRFPAEQALYGAYYARITLEAGFTSVRDVGSEDWVALGLRNAIDAGKVPGPRMLVSNYAVGSTGGHADQDPIPPHKLPLAGPLQGVCNGPEECRAAVRYQIKYGANVIKFMPSGGVLSLSDPVDAPELSQDEMNAVIGESHAWGRKVAAHAHGDKAAKMAVAAGVDSIEHGSFIEDDTLRAMKAKNVYLVPTISAIAHVEEKIGTFPPVIAEKGRAAAAHLRQTFRHAVQIGVPIALGTDAGVGAHGSNAREFRYMVENGLTPAQALLAGTANAARLLGTFDRVGTLEAGKLADVVAVPGNPIADITVTERPLFVMKDGVVVRRDAVR | 78 | 95 | 28
2 | 150 (protein, exemplary polypeptide) MTTRTRILTAFLSLLAANACAADAAPAAPHTVVLRAARMFDGASGKLVDHPQLTIVGNKIVRIAQGDKAEVPAGAEVVDLGDATLLPGFIDAHVHLSGQSSDNWYGDFFDNMMRFPAEQALYGAYYARITLEAGFTSVRDVGSTDWVALGLRNAIDAGKVPGPRMLVSNYPVGSTGGHADQDPVPPHKLPLAGPLQGVCNGPEECRAAVRYQIKYGANVIKFMPSGGVLSLSDPVDAPELSQDEMNAVIGESHAWGRKVAAHAHGDKAAKMAVAAGVDSIEHGSFIEDDTLRAMKAKNVYLVPTISAIAHVEEKIGTFPPVIAEKGRAAAAHLRQTFRHAVQIGVPIALGTDAGVGAHGSNAREFRYMVENGLTPAQALLAGTANAARLLGTFDRVGTLEAGKLADVVAVPGNPIADITVTERPLFVMKDGVVVRRDAVR | 89 | 62 | 22
3 | 148 (protein, exemplary polypeptide) MTTRTRILTAFLSLLAANACAADAAPAAPHTVVLRAARMFDGASGKLVDHPQLTIVGNKIVRIAQGDKAEVPAGAEVVDLGDATLLPGFIDAHVHLSGQSSDNWYGDFFDNMMRFPAEQALYGAYYARITLEAGFTSVRDVGSTDWVALGLRNAIDAGKVPGPRMLVSNYAVGSTGGHSDQDPIPPHKLPLAGPLQGVCNGPEECRAAVRYQIKYGANVIKFMPSGGVLSLSDPVDAPELSQDEMNAVIGESHAWGRKVAAHAHGDKAAKMAVAAGVDSIEHGSFIEDDTLRAMKAKNVYLVPTISAIAHVEEKIGTFPPVIAEKGRAAAAHLRQTFRHAVQIGVPIALGTDAGVGAHGSNAREFRYMVENGLTPAQALLAGTANAARLLGTFDRVGTLEAGKLADVVAVPGNPIADITVTERPLFVMKDGVVVRRDAVR | 40 | 19 | 35
4 | 152 (protein, exemplary polypeptide) MTTRTRILTAFLSLLAANACAADAAPAAPHTVVLRAARMFDGASGKLVDHPQLTIVGNKIVRIAQGDKAEVPAGAEVVDLGDATLLPGFIDAHVHLSGQSSDNWYGDFFDNMMRFPAEQALYGAYYARITLEAGFTSVRDVGSTDWVALGLRNAIDAGKVPGPRMLVSNYPVGSTGGHADQDPIPPHKLPLAGPLQGVCNGPEECRAAVRYQIKYGANVIKFMPSGGVLSLSDPVDAPELSQDEMNAVIGESHAWGRKVAAHAHGDKAAKMAVAAGVDSIEHGSFIEDDTLRAMKAKNVYLVPTISAVAHVEEKIGTFPPVIAEKGRAAAAHLRQTFRHAVQIGVPIALGTDAGVGAHGSNAREFRYMVENGLTPAQALLAGTANAARLLGTFDRVGTLEAGKLADVVAVPGNPIADITVTERPLFVMKDGVVVRRDAVR | 65 | 74 | 38
5 | 145 (protein, exemplary polypeptide) MTTRTRILTAFLSLLAANACAADAAPAAPHTVVLRAARMFDGASGKLVDHPQLTIVGNKIVRIAQGDKAEVPAGAEVVDLGDATLLPGFIDAHVHLSGQSSDNWYGDFFDNMMRFPAEQALYGAYYARITLEAGFTSVRDVGSPDWVALGLRNAIDAGKVPGPRMLVSNYAVGSTGGHADQDPIPPHKLPLAGPLQGVCNGPEECRAAVRYQIKYGANVIKFMPSGGVLSLSDPVDAPELSQDEMNAVIGESHAWGRKVAAHAHGDKAAKMAVAAGVDSIEHGSFIEDDTLRAMKAKNVYLVPTISAIAHVEEKIGTFPPVIAEKGRAAAAHLRQTFRHAVQIGVPIALGTDAGVGAHGSNAREFRYMVENGLTPAQALLAGTANAARLLGTFDRVGTLEAGKLADVVAVPGNPIADITVTERPLFVMKDGVVVRRDAVR | 101 | 90 | 47
6 | 151 (protein, exemplary polypeptide) MTTRTRILTAFLSLLAANACAADAAPAAPHTVVLRAARMFDGASGKLVDHPQLTIVGNKIVRIAQGDKAEVPAGAEVVDLGDATLLPGFIDAHVHLSGQSSDNWYGDFFDNMMRFPAEQALYGAYYARITLEAGFTSVRDVGSTDWVALGLRNAIDAGKVPGPRMLVSNYPVGSTGGHADQDPIPPHKLPLAGPLQGVCNGPEECRAAVRYQIKYGANVIKFMPSGGVLSLSDPVDAPELSQDEMNAVIGESHAWGRKVAAHAHGDKAAKMAVAAGVDSIEHGSFIEDDTLRAMKAKNVYLVPTISAAAHVEEKIGTFPPVIAEKGRAAAAHLRQTFRHAVQIGVPIALGTDAGVGAHGSNAREFRYMVENGLTPAQALLAGTANAARLLGTFDRVGTLEAGKLADVVAVPGNPIADITVTERPLFVMKDGVVVRRDAVR | 75 | 86 | 30
7 | 146 (protein, exemplary polypeptide) MTTRTRILTAFLSLLAANACAADAAPAAPHTVVLRAARMFDGASGKLVDHPQLTIVGNKIVRIAQGDKAEVPAGAEVVDLGDATLLPGFIDAHVHLSGQSSDNWYGDFFDNMMRFPAEQALYGAYYARITLEAGFTSVRDVGSRDWVALGLRNAIDAGKVPGPRMLVSNYAVGSTGGHADQDPIPPHKLPLAGPLQGVCNGPEECRAAVRYQIKYGANVIKFMPSGGVLSLSDPVDAPELSQDEMNAVIGESHAWGRKVAAHAHGDKAAKMAVAAGVDSIEHGSFIEDDTLRAMKAKNVYLVPTISAIAHVEEKIGTFPPVIAEKGRAAAAHLRQTFRHAVQIGVPIALGTDAGVGAHGSNAREFRYMVENGLTPAQALLAGTANAARLLGTFDRVGTLEAGKLADVVAVPGNPIADITVTERPLFVMKDGVVVRRDAVR | 172 | 112 | 45
